# Assay: soluble on expression in E. coli; label from the status in PepcDB or PDB records
row,Sequence,soluble on expression in E. coli
1,GPGSMITDSHIMRLVTDGRMEMFPAVPPPSADGNGVVMLSCYQRGPLLPPTPPRPSSGRNDRIMWDSWQTRPVPQYRGNPETKTQRGVADWQHVPFACPFLRPVVTDVDRAVRGGNATRWLPTPFVGPQVFTVKDKSAGGVLVEQKEAPSSSTS,not soluble
2,MGTETVSFKWEGKKVAQVNGVTAEKVWSVFSDFCNVQEWFPSVDTCYRVQGTDGVPGLIRYCSTTKTKEEGSRWAKEKLVKIDPIGRCLSYEILENNVGFRSYVATVQVTPVDGEDQVSRIEWSFVADPVDGWKKEDLESYVDFCLQHMANKMELNL,soluble
3,MGVDNFSTTKKMFTWEVPGERVITLMTAGNLATTQALISLLEERSKTPSERSPSILERPTMFEVARLVGATLKEVIADTAGTGQVASSQFKASVIVGGQVKGGLPTLFLIYPEGNFIEVTEDSPFFQIGEAKYGKPILVRAYDPDLSFEDTIRLLMVSFDSTIKANLSVGLPLDLQVYANDSFAIKEQSRVEADDAYFQSISERWGDALRKALSDLPPYKSLLEHHHHHH,not soluble
4,MIESVLLLVSGLPGSGKSTLARGMAEALAWPCLDKDDFLEALFDARGIGDAAWRRALSREADSRFLAALQAAPRAVACSWWRHPRGEGGSGTPIGGLARPGRLVLELHCRCPAELAAARFARRVRHPGHLDAQRDPGALSLQLRRAERLGPLGLGQCLILDASVQTDLSGALAWTRDALAAGALADPPRHPLEHHHHHH,not soluble
5,MYELYTLLAEYYDTIYRRRIERVKAEIDFVEEIFKEDAKREVRRVLDLACGTGIPTLELAERGYEVVGLDLHEEMLRVARRKAKERNLKIEFLQGDVLEIAFKNEFDAVTMFFSTIMYFDEEDLRKLFSKVAEALKPGGVFITDFPCWFYGGRDGPVVWNEQKGEEKLVIMDWREVEPAVQKLRFKRLVQILRPNGEVKAFLVDDELNIYTPREVRLLAEKYFEKVKIYGNLKRELSPNDMRYWIVGIAKSF,soluble
6,MSDRKAVIKNADMSEDMQQDAVDCATQAMEKYNIEKDIAAYIKKEFDKKYNPTWHCIVGRSGNFGSYVTHETKHFIYFYLGQVAILLFKSG,soluble
7,MGRMHNPGKGMAKSAIPYRRSVPSWQKMTAEEVQDQIVKMAKKGLRPSQIGVILRDSHGVGQVRRLAGNKIFRILKSKGMAPELPEDLYHLVKKAVAIRKHLERSRKDIDSKYRLILVESRIHRLARYYKTKRQLPPTWKYESGTAASLVS,soluble
8,MRNILATILLVVMLFLVACTGNNNQLVSQSELVPENTPVDGNQIKAPEETLSSDSMYSDYNGKNIKFRFPKTWEMTEYQADYEYFIRFNLPTKNKNRAPNQVTIVISDMAEKSKNFDYQNKNIFEQYIENDNTMDISNITVDGCNGYKAVSIESETLYISFEKGDLRYDLIFMSDEGEFLELLPEVESMISSISTY,not soluble
9,MGSDKIHHHHHHMTKSDLLFDKFNDKHGKFLVFFGTFVDTPKLGELRIREKTSVGVLNGIIRFVNRNSLDPVKDCLDHDSSLSPEDVTVVDIIGKDKTRNNSFYFPGFVDTHNHVSQYPNVGVFGNSTLLDWLEKYTFPIEAALANENIAREVYNKVISKTLSHGTTTVAYYNTIDLKSTKLLAQLSSLLGQRVLVGKVCMDTNGPEYYIEDTKTSFESTVKVVKYIRETICDPLVNPIVTPRFAPSCSRELMQQLSKLVKDENIHVQTHLSENKEEIQWVQDLFPECESYTDVYDKYGLLTEKTVLAHCIHLTDAEARVIKQRRCGISHCPISNSSLTSGECRVRWLLDQGIKVGLGTDVSAGHSCSILTTGRQAFAVSRHLAMRETDHAKLSVSECLFLATMGGAQVLRMDETLGTFDVGKQFDAQMIDTNAPGSNVDMFHWQLKEKDQMQEQEQEQGQDPYKNPPLLTNEDIIAKWFFNGDDRNTTKVWVAGQQVYQI,not soluble
10,MARIKLIDETTDLSQVRRPIGWDLEVNGVPYDVYRIDGYNHTLGGKFSENCYWACPAGKKPTYKNLIEFNGDAPTWGIVFDRSNYTKTKWDETSVECNGICWITRNGKKFYSIPARYMDYGLAKAQYILVKLLEECPLWLSERNWKEKAIGRKIWYENQPAKIIRINEENELWIEPDGIPVFKAPAHWDHDDYSDYENGLRVDLLSPNIYWFRD,not soluble
11,MQVTYKGRPIRITPDFSPETMKARRAWTDVIQTLREHKCQPRLLYPAKLSITIDGETKVFHDKTKFTQYLSTNPALQRIITEKKQYKD,soluble
12,MAHHHHHHMLSQNVAKTTVPSYYMIRTNLPQRKPQNQWEGVYYFGGITKRQRHLILLQRKREREARMRAFSASCSNLLRLLEGDTQEQQQAKTQTIQLSSPHGPFDLAIRLAQHGLYQQASRIVDELHQQRALRMSHYGLLIDALSAPCLGQRILYGSAQCDPALTYKLLGDENGEERAQEAHRWFDMAFALLTTECRMSGSEHRLPQATAAATHLVNALMRALLTCGYTHVSAVPDAVYDRMGLMGISPTISTYELVMLALSLQGNMKEAESVFSFLRRHHNEHVTIGSFNALLLGHRECRQFDRCDAIWQELVDRRWPRASTLTAELYLRSIVDHSYTPTSGPLQRFGNINVVEKKKIPLVLAQMDDLGIPRAHLSRPLMDEVEDALRKFHIYKSRYYEWGRAVKQFNFIEFRRRNGWMYDLHLMKNTTKQVGPLRDFNQPDATQAPVATVEIPAFFNERPAWEQPPLEETLYVTESRERYDDVRSGDIYEDRTRSLHDRSPTWMNEVPETRYDHLYGVNHPDIAKIGIRRHLNAEYVNRKEVVERDAALMKKNLSTGRRLRRKVESSRTHRNAGSMSGAAPASASR,not soluble
13,MPVTLSFGNHQNYTLNESRLAHLLSADKEKAIHMGGWDKVQDHFRAEKKDHALEVLHSIIHGQGRGEPGEMEVNVEDINKIYAFKRLQHLACPAHQDLFTIKMDASQTQFLLMVGDTVISQSNIKDILNISDDAVIESMSREERQLFLQICEVIGSKMTWHPELLQESISTLRKEVTGNAQIKTAVYEMMRPAEAPDHPLVEWQDSLTADEKSMLACINAGNFEPTTQFCKIGYQEVQGEVAFSMMHPCISYLLHSYSPFSEFKPTNSGFLKKLNQDYNDYHAKKMFIDVILEKLYLTHERSLHIGKDGCSRNILLT,not soluble
14,AHHHHHHGSNRKLDEFLGSNDPPATKEENQKVKKKQRLRATNLDEFLPEDHINFFKNLRIGSKKIARKKIEEL,not soluble
15,DTEGKAHNEQAESIELEGDRIYKITLKDGLKFSDGTPIKAENFVKTWNYAVANDQLNASFFEGIKGFKEGVKELEGLKVVDDKTFTVELDQPESDFPSRLGYSAFFALPDIAFDDMAAFGENPVSSGPYKLAEWNHNESLTIVPNEEYQGDRKAKNDGVKFVFYASQDAAYSDLLAGNLDVLDQVPDSAFATYKDELGDRAVNQPAAVFQSFTIPEKLEHFSGEEGALRRAAISHAINREEITKTIFQDTRTPAKDFSSPVVDGYKEGLKGSEVVKFDSAKAKELWAQADKISKFTGEFTIAYNSDGGHQSWVDAVANQLKNNLGIAASGKPYPDFKSLRDEVTNHTITGAFRTGWQGDYPLLGNFLQPLYATNASSNDGQYSNPAFDAKLEEAAGAKSVEEGLKLYQEAEEILFKDLPAIPLWYANVNGGSSDKVSNVTFNWKSVAAYEQITKG,not soluble
16,MKLLTSPFQGLKWLAPLLADDGSLHIPPQDLIQHKGISSWEVKVIVTRIDFLADQVTGTAIHQLTIDPARPFSGTEVPINITGEGTLLVTMQITAMSEDRPYCNRQYLAADIIAVVPPGVQNKVHNITHPAAPTIQHLSVGGGYTPIRQLVVQRE,not soluble
17,MENILDYNEAELKQWMDKNGEKTFRAKQFFDWIYNGTFDFKDMKNLPQSTRERLEKNFYIGMPSVVKRLNSKKGDTVKFLFRYNDGNIIECVVMKYDYGNSICISTQVGCRMGCSFCASTIGGRVRDLTSGEILAQILKAQKEIGERISNIVLMGSGEPLDNYDNVIKFIRIVNSEKGLNIGQRHITLSTCGIVPRIYDLMKENLQITLAISLHASDDETRKKIMPIANRYSISEIIDCCKKYSDFTGRRITFEYSLVKDVNDDKESAKKLGELLSGMLCHVNLIPVNTVNETSYEKPESSKIKKFCDTLLKYKIESTIRKEMGADINAACGQLRRNYIEESEGK,not soluble
18,MNNIENVDQKLIENLANLMSSEVRAKIYIYLRKYNKSTVDEIAGGTGIYPSTVRESILDMYNTGYVSREKMDKEGLGKKPYLYTAAAPSEIVRKISKNIQEKLNDLIMVDRRIESKELKIPFVPVKIVVDEKYRD,not soluble
19,GMKQDSIITLHPDDRSEQTAEIMRRFNDVFQLHDPAALPELIAEECVIENTVPAPDGARHAGRQACVQLWSAIATQPGTRFDLEETFVAGDRATIRWRYWMADGNSVRGVNLMRVQDGRIVEAMGYVKG,soluble
20,MSLKKILVQWKNGPSQIGRMYPLPVFDEHDIVQLCSEVKDILRIQPAVIQRKPGVIIVGDLHGNFLNFLQIFAIHGLPPNQNYIFLGNYINYGEFSLEVVIYLFSLYYLFPSNISLLRGSTEFYPSKGPRSLSSNIDTTYGPNSILKSVFLETFTYLPIACLIGNSVLCSRSSLVSRYSNLQEIFHETLPIPCVVDQSHLFLSGLANVIPSEEVLEEFLATNNLNFLIFGGKNAGDGVENMLDDRCYALASDAHMGYCGIINLVGNQPPFAIIFTPDSDLLRENAQMLREGHHHHHH,not soluble
21,MEEAEKPLQVAAVDSSVPRTAELAGITTLDDPLGHMPERFDAFICYCPSDIQFVQEMIRQLEQTNYRLKLCVSDRDVLPGTCVWSIASELIEKRCRRMVVVVSDDYLQSKECDFQTKFALSLSPGAHQKRLIPIKYKAMKKEFPSILRFITVCDYTNPCTKSWFWTRLAKALSLPLEHHHHHH,soluble
22,MYLKARQDELTESTIQSQEYRLEAFEQFCREEGIENLNDLSGRDLYAYRVWRREGNGKGRDEIEPITLRGQLATVRSFLRFAAEVDAVPEDLRTKVPLPTILEHHHHHH,not soluble
23,MRGSHHHHHHGSACELVREMEGVDYLADERKKAGFDVDEMKIVWAGSRHDFELTDRISKLVASDPGFSKEGRTMLPRKELFKNTLRKAAYAWKRIIELRLSQEEATMLRRYVDEPAFTDLHWGMFIPAIKGQGTDKQQEKWLPLAYKMQIIGCYAQTELGHGSNVQGLETTATFDPQTDEFVIHSPTLTSSKWWPGGLGKVSTHAVVYARLITDGKDYGVNGFIVQLRSLEDHKPLPGVTVGDIGMKFGNGAYNSMDNGVLSFDHVRIPRDQMLMRVSQVTKEGKYVQSDIPRQLLYGTMVYVRQSIVADASLAMSRAVCIATRYSAVRRQFGSQNGGQETQVIDYKTQQNRLFPLLASAYAFRFVGEWLKWLYTDVTQRLAANDFSTLPEAHACTAGLKSLTTSATADGIEECRKLCGGHGYLCSSGLPELFAVYVPACTYEGDNVVLQLQVARFLMKTISQLGTGKKPVGTVSYMGRIEHLMQCRSDVKQAEDWLKPSAVLEAFEARSARMSVACAKNLSKFENQEEGFAELAADLVEAAVAHCQLIVVSKYIEKLQQNIPGKGVKQQLEVLCGIYSLFILHKHQGDFLGTGYITSKQGSLANDQLRALYSQLRPNAVSLVDAFNYTDHYLGSILGRYDGNVYPKLYEAAWKDPLNKSDIADGFHEYIRPLLKQQLRTAKL,soluble
24,MIINKVKSLIKHGFNLAIDISADILLIFTETGRTYEYYKDQEAIYKRARKNRSLKDFKSLKVVVTTPNEETFLKLKNESKIIPLLMTYRNDDRSSMIKQAVTNLFANNIVKKGDIVVSILGIPKVTGGTDTISIFEVNEYPQILKYYDYISSIEKTKGKVINEVLNLCMELAVEGREGTPVGSIFVIGDSDRVLKMSSQLILNPFEGHESFIFDKQVKGTVKELSTIDGAFVIGEKGEVLCAGRYISCSGGNIELPLGLGARHHAAATISKYTGAIAITVSESGGVIRIFKNGEILSEIKPKKLSNTSEYSY,not soluble

# From the DeepSol protein solubility set
